Here are results for one molecule from US20230399376A1 (BAKER HEART AND DIABETES INSTITUTE, published 2023).

Experiment [1] concerns the target GPIIb/IIIa on non-activated (resting) human platelets (human, UniProt P08514 32-1039; P05106 27-788). Description: flow cytometry on human platelets, anti-Penta-His Alexa Fluor 488 detection. The method, then: (§1) Binding of scFv-CD39 to activated human platelets was evaluated by flow cytometry: 0.1 mg/mL of scFv-CD39, 0.2 mg/mL of scFvₘᵤₜ-CD39 (both activity matched), and 0.038 mg/mL of anti-CD41 scFv (equimolar amount of the scFv in scFv-CD39) were tested.
(§2) Citrated blood from volunteers was centrifuged at 180 g for 10 minutes. The platelet-rich plasma (PRP) was collected and stored at 37° C. The remainder (infranatant) was centrifuged at 2500 g for 10 minutes, and its supernatant was collected as platelet-poor plasma (PPP).
(§3) PRP was diluted 1:20 in phosphate-buffered saline (PBS; 100 mg/L calcium chloride, 100 mg/L magnesium chloride). To investigate the binding of scFv-CD39 constructs, the diluted PRP ([…]) was either preincubated with a final concentration of […] ADP or […] of PBS for 15 minutes before addition of the constructs. The binding was then determined via a Penta-His Alexa Fluor-488-conjugated monoclonal antibody (Qiagen). To investigate the ecto-nucleoside triphosphate diphosphohydrolase efficiency, PRP was preincubated with scFv-CD39 constructs before administration of […] ADP. Platelet activation status was measured by a phycoerythrin (PE)-labeled anti-P-selectin antibody (BD Bioscience). Samples were fixed using […] Cellfix (BD Bioscience) and analyzed on a FACS Calibur (BD Bioscience).
(In general: A flow cytometer gives signals particle by particle.)

Experiment [2] has as its target T1, activated glycoprotein GPIIb/IIIa on ADP-activated human platelets (human, UniProt P08514 32-1039; P05106 27-788).
T1 construct: also called integrin alphaIIbbeta3
The experiment can be described thus: flow cytometry on ADP-activated human platelets, anti-Penta-His Alexa Fluor 488 detection. The method, then:
as §1, §2, §3

T1 sequence (P08514 32-1039 limits assumed, chain 1 of 2): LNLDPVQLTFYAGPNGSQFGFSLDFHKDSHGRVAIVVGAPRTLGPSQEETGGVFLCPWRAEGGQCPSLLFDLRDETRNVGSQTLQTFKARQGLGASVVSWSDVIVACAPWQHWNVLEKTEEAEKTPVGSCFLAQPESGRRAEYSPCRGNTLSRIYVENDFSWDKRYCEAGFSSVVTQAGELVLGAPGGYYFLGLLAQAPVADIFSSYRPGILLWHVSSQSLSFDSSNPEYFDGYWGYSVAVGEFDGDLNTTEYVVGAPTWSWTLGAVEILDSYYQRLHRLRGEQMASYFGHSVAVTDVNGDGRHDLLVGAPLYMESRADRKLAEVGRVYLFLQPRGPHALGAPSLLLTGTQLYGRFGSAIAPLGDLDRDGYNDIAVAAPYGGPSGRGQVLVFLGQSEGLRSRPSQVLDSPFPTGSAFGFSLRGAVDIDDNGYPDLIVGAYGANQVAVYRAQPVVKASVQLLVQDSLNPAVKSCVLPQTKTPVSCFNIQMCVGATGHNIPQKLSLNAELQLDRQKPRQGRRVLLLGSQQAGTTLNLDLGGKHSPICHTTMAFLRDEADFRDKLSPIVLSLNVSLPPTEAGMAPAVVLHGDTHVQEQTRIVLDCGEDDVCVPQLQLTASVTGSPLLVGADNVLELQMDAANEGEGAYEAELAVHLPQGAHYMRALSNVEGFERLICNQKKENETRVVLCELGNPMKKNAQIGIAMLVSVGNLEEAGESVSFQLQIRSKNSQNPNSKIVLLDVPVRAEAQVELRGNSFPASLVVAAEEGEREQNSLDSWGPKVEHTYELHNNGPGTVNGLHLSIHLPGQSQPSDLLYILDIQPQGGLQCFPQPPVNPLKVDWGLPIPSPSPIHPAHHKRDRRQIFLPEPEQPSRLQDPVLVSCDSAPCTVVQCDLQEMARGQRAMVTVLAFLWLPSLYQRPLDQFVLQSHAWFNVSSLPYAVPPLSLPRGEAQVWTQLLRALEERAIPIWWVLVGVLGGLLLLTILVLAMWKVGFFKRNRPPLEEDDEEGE
T1 sequence (P05106 27-788 limits assumed, chain 2 of 2): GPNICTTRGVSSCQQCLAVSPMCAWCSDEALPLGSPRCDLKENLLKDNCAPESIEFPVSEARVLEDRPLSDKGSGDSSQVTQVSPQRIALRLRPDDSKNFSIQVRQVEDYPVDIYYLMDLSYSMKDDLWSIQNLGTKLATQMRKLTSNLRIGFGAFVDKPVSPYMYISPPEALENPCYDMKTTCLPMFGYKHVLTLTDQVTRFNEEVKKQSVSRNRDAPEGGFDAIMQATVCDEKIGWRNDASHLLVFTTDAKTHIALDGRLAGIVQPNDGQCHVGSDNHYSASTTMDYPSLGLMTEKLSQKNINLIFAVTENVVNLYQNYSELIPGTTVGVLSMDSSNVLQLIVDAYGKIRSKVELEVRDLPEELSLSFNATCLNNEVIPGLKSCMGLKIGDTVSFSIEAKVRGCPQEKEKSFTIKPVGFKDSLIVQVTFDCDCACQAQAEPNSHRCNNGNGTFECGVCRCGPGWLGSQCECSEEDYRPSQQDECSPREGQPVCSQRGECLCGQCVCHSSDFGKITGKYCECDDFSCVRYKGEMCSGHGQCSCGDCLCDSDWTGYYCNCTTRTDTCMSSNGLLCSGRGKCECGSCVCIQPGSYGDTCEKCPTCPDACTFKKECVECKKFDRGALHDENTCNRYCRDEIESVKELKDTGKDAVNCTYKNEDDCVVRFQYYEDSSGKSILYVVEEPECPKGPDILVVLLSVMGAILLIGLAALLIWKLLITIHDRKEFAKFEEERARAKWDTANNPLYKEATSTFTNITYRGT
GPIIb/IIIa on non-activated (resting) human platelets, sequence (P08514 32-1039 limits assumed, chain 1 of 2): as the sequence (P08514 32-1039 limits assumed, chain 1 of 2) above
GPIIb/IIIa on non-activated (resting) human platelets, sequence (P05106 27-788 limits assumed, chain 2 of 2): as the sequence (P05106 27-788 limits assumed, chain 2 of 2) above

B1: scFvmut-CD39 (scFv)
chain: HHHHHHHHRRAVRSLVPSSDPLQCGGILAEVQLVQSGAEVNKPGASVKVSCKASGYTFTGYYMHWVRQAPGQGLEWMGWINPNSGGTNYAQKFQGWVTMTRDTSISTAYMELSRLRSDDTAVYYCARGRALYNANDRSPNWFDPWGQGTLVTVSSGSASAPTLKLEEGEFSEARVQAVLTQPPSVSVAPGQTARITCGGNNIGSKSVQWYQQKPGQAPVLVVYDDSDRPSGIPERFSGSNSGNMATLTISRVEAGDEADYYCQVWDSSSDHVVFGGGTKLTVLGGKPIPNPLLGLDSTLPETGGLEEAAATQNKALPENVKYGIVLDAGSSHTSLYIYKWPAEKENDTGVVHQVEECRVKGPGISKFVQKVNEIGIYLTDCMERAREVIPRSQHQETPVYLGATAGMRLLRMESEELADRVLDVVERSLSNYPFDFQGARIITGQEEGAYGWITINYLLGKFSQKTRWFSIVPYETNNQETFGALDLGGASTQVTFVPQNQTIESPDNALQFRLYGKDYNVYTHSFLCYGKDQALWQKLAKDIQVASNEILRDPCFHPGYKKVVNVSDLYKTPCTKRFEMTLPFQQFEIQGIGNYQQCHQSILELFNTSYCPYSQCAFNGIFLPPLQGDFGAFSAFYFVMKFLNLTSEKVSQEKVTEMMKKFCAQPWEEIKTSYAGVKEKYLSEYCFSGTYILSLLLQGYHFTADSWEHIHFIGKIQGSDAGWTLGYMLNLTNMIPAEQPLSTPLSHSTTRGGPEQKLISEEDLNSAVDHHHHHH
notes: Non-targeting control construct; also called non-targ-CD39; Non-targCD39; not shown: 6xHis-tag used for detection
With B1, the binding result in experiment [1] and in experiment [2] was “no binding (tested: 0.2 mg/mL)” each time.
